Measured values published in the nanobody polyreactivity screen of Harvey et al. (2022).

Assay: yeast display, Sf9 membrane polyspecificity reagent, FACS + sequencing; frameworks hold sequencing errors
Procedure, shortened: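 Nanobodies from a synthetic yeast display library (Saccharomyces cerevisiae BJ5465), induced 36–48 hours with galactose, were stained 1 hour at 4 °C with 10% biotinylated, detergent-solubilized Sf9 membrane reagent, enriched on streptavidin microbeads, then FACS-sorted. Anti-HA (expression) and streptavidin (reagent binding) fluorescence set low and high (top ~1%) gates. Polyreactivity labels come from the gate of origin. Genes were colony-PCR amplified, MiSeq 2 × 250 sequenced and filtered by CDR length.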

Sequence	polyreactivity (PSR sort gate)
QVQLVESGGGLVQAGGSLRLSCAASGSIFYTYAMGWYRQAPGKERELVADISSRGGSTYYADSVKGRFTISRDNAKNTVYLQMNSLKPEDTAVYYCNAPQGFVWRYSSWGPYDYWGQGTQVTVSS	high polyreactivity
QVQLVESGGGLVQAGGSLRLSCAASGSTFHGNAMGWYRQAPGKERELVAAISRSGGSTYYADSVKGRFTISRDNEKNTVYLQMNSLKPEDNAVYYCAADRPYYPLKYDYWGQGTQVTVSS	high polyreactivity
QVHLVESGVGLVQSGGSIRLTCAASGSTFHVYTKGSYRQAPGKEREFVASISCSGSSTYYADSVKGRFTISRDNAKNTVYLQMNSLKPEDTAVYYCNVDRWWLGWYKFNYWGQGTQVTVSS	high polyreactivity
QVQLVESGGGLVQAGGSLRLSCAASGYIFKVNSMGWYRQAPGKERELVADISRNSGSTRYADSVKGRFTISRDNAKNTVYLQMNSLKPDDTAVYYFAADGRYWVKPGSPWDRSRYDYWGQGTQVTVSS	low polyreactivity
QVQLVESGGGLVQAGGSLRLSCAASGRIFVHNAMGWYRQAPRKERELVAAISWSGGSTYYADSVKGRFTISRDNAKNTVYLQMNSLKPEDTAVYYCNALDPLYFRYDYWGQGTQVTVSS	low polyreactivity
QVQLVESGGGLVQAGGSLRLSCAASGIIFSYNAMGWYRQAPGKERELVAAITSIGGRTYYADSVKGRFTISRDNAKNTVYLKMNSLKPEDCAVYYCAVVAAFYNSPEGDYWGQGTQVTVSS	low polyreactivity
QVQLVESGGGLDQAGGSLRLICAASGRTFATNTMVWYRQAPGKERELVAAITFSGGSTYYADSVKGRFTISRDNEKNSVYLQMNSLKPEETAVYYCNVRSPYYSYRYRYGYWGQGTQVTVSS	high polyreactivity
QVQLVESGGGLVQAGGSLRLSCAASGRTFRYNAMGWYRQAPGKERELVAGIRWSGDRTYYADSVKGRFTISRDNAKNTVYLQMNSLKPEDTAVYYCNKVYHPGYGVRATYDYWGQGTQVTVSS	high polyreactivity
QVQLVESGGGLVQAGGSLRLSCAASGSIFINNTMGWYRQAPGKERELVAAISITGGSTYYADSVKGRFTISRDNAKNTVYLQMNSLKPEDTAVYYCAADPLQLYDYNYWGQGTQVTVSS	low polyreactivity
QVQLVESGGGLVQAGGSLRLSCAASGRNFPYYAMGWYRQAPGKERELVATISSGGITNYADSVKGRFTISRDNAKNTVYLELNSLKPEDTAVYYCAADRHWSAGLWRYDYWGQGTQVTVSS	high polyreactivity
QVQLVESGGGLVQAGGSLRLSCAASGRTFGNYAMGWYRQARGKERELVASISRRGGSTYYADSVKGRFTISRENAKNTVYLQMTSLKPDDTAVFYCATLRGRQRFGYDYWGQGTQVTVSS	high polyreactivity
QVQLVESGAGLVKAGCSLRISCAASGSSFVTYDMGWYRQAPGKERELVAGISGSGSTNYADSVKGRFTISRDNAKNTVYLQMNSLKPEDTAVYYSAAEYEYLWSQYLTDYGYDYWGQGTQVTVSS	low polyreactivity
QVQLVESGGGLVQAGGSLRLSCAASGRIFGYYAMGWYRLAPGKERELVAAITSGGRTTYADSVKGRFTISRDNAKNTVYVQMNSLKPEDTAVYYCAKEYPRYSSPYDYWGQGTQVTVSS	low polyreactivity
QVQLVESGGGLVQAGGSLRLSCAASGSIFWDYAMGWYRQSPGKERELVAAISGSGTSTYYADSVKGRFTISRDNAKNTVYLQMNSLKPEDTAVYYCAARIWTGRGRKLGNGYDYWGQGTQVTVSS	low polyreactivity
QVQLVESGGGLVQAGGSLRLSCAASGIIFFPYAMGWYRQAPGKEREFVAAITSRGGSTYYADSVKGRFTISRDNAKNTVYLQMNSLKPEDTAVYYCAADHLGRARGPWRYNYWGQGTQVTVSS	low polyreactivity
QVQLVESGGGLVQAGGSLRLSCAASGITFKAYAMGWYRQAPGKERELVAAINTSGARTYYADSVKGRFTISRDNAKNTVYLQMNSLKTEDTAVYYCNARLHQQEGDDWGQGTQVTVSS	low polyreactivity

Sequence	polyreactivity (PSR sort gate)
QVQLGESGGGLVQAGGSLRLSCAASGRTFWSYAMGWYREAAGKERELVAAITSSGGTTNDADSVKGRFTISRDNAKNTVYLQMNSLKPEDTAVYYCAAYSWYFGSRYDYWGQGTQVTVSS	low polyreactivity
QVQLVESGGVLVQAGGSLRLSCAASGSIFYSYAMGWYRQAPGKDRELVAAITRSGGSTYYADSVKGRFTISRENAKNTVYVQMHSLKPEDTAGYYCNARGKGDYYWGQGTQVTVSS	high polyreactivity
QVHLVESGGGLVQAGGSLRLSCSASGSTFFPYAMGWYRQAPGKERELVAAITSGGRTKYADSVKGRFTISRDNAKNTVYLQMNSLKPEDNAVYYCAARGLIKEYGGPYRRFGYWGQGTKVTVSS	high polyreactivity
QFQLVESGGGLVQAGGSHRLSCAASGRIFSYYAMGWYRQAPGNERELVATITSGGNTNYADSVKGRFTISLDNAKNTVYLQMNSLKPEDTAVYYCKAAERQWYDAYDYWGQGTQVTVSS	low polyreactivity
QVQLVESGGGLVQAGGSLRLSCAASGIIFYKYAMGWYRQAPGKERELVAAISYSGTSTYYADSVKGRFTISRDNAKNTVYLQINSLKPEDTAVYYCAAVTYVPRSTNGISLYDYWGQGTQVTVSS	high polyreactivity
QVQLVESCGGLVQAGGSLRLSCAASGFTFYYYVMGWYRQAPGQERELVAAISRSGGNTYYADSVKGRFTISRDNAKNTVYLQMNRLKPEDTAVYYCNAVQYYPVYYWGQGTQVTVSS	high polyreactivity
QVQLVESGGGLVQAGGSLRLSCAASGSIFNRYTMGWYRPAHGKQRELVAAISRGGITYYADSVKGRFTISRDNAMNTVYLQMNSLKPEDSAVYYCAADGFTRWGRYDYWGQGTQVTVSS	high polyreactivity
QVQLEESGGGLVQAGGSLRLSCAASGSIFYEYAMGLYRTAPGKERVFVAAISSRGGYTNYADSVKGRFTISRDNAKNTVYLQMNSLKPEDTAVYYWAGYGGLQSRYYYWGLGTQVTVSS	high polyreactivity
QVQLVDSGGGLVQAGGSISLSCAPSGFTIVGNAMGWYRLAPGKERELVAAISSGDDTNDADSVKGRFTISRDNAKNTVYLQMYSLKPEDTAVYYCAAAYYYYVSGWFDYWGQGTQVTVSS	low polyreactivity
QVQLVESGGGLVHAGGSLRLSCAASGGIFYVNAMGWYRQAPGKERELVADIRYSGTSTYYADSVKGRFTISRDNAKNTVYLQMNSLKPEDTAVYYCAVDAWDTTHVYEQGAERDSWGQGTQVTVSS	low polyreactivity
EVQLVESGGGLVQPGGSLRLSCAASGYIYSRYRMGWYRQAPGKGREFVAAISGGSSTTYADSVKGRFTISRDNSKNTVYLQMNSLRAEDTAVYYCAAYKIDSDPRVYWGQGTQVTVSS	low polyreactivity
QVQLVESGGGLVQAGGSLRLSCAASGRIFGEYAMGWYRQAPGKERELVAAISGGGSTYYADSVKGRFTISRDNAKNTVYLQMNSLKPEETAVYYCAVYSVYHEYDYWGHGTQVTVSS	low polyreactivity
QVQLVESGGGLVQAGGSLRLSCAASGRIFDHYARGWYRQAPGKERELVAAINSGGTTNYADSVKGRFTISRDNAKNTVYLQMNSLKPEDTAVYYCAARPRKGQYYFGGNYWGQGTQVTVSS	low polyreactivity
QVQLVESGGGIVQAGGSLRLSCAASGRIVRNYAMGWYRQAPGKERELVAGITRGGRTNYAHSVKGRFTISRDNAKNTVYLQMNSLKPEDTAVYYCNKVSSFGYYYWGQGTQVTVSS	high polyreactivity
QVQLVESGGGLVQAGGSLRLSCAASGSTFQVYAMGWYRQAPGKERELVASITSGGSTYADSVKGRFTISRDNAKNTVYLQINSLKPEDTAVYYCAAGGYFYPYTYDYWGQGTQVTVSS	low polyreactivity
QVQLQESVGGQVQAGGSLRLSCAASGTIFLYAFIGWYRQAPGKEPELVAAIDVGTTTNYADSVKGRFTISRDNAKNTVYLQMNSLKPEDTAVYYCAANLGYLDDLGYWGQGTQVTVSS	low polyreactivity
